# Laboratory results from patent US20130196336A1.
# B1: recombinant human transglutaminase 2 with N-terminal hexahistidine-tag (enzyme)
# chain: HHHHHHAEELVLERCDLELETNGRDHHTADLCREKLVVRRGQPFWLTLHFEGRNYEASVDSLTFSVVTGPAPSQEAGTKARFPLRDAVEEGDWTATVVDQQDCTLSLQLTTPANAPIGLYRLSLEASTGYQGSSFVLGHFILLFNAWCPADAVYLDSEEERQEYVLTQQGFIYQGSAKFIKNIPWNFGQFEDGILDICLILLDVNPKFLKNAGRDCSRRSSPVYVGRVVSGMVNCNDDQGVLLGRWDNNYGDGVSPMSWIGSVDILRRWKNHGCQRVKYGQCWVFAAVACTVLRCLGIPTRVVTNYNSAHDQNSNLLIEYFRNEFGEIQGDKSEMIWNFHCWVESWMTRPDLQPGYEGWQALDPTPQEKSEGTYCCGPVPVRAIKEGDLSTKYDAPFVFAEVNADVVDWIQQDDGSVHKSINRSLIVGLKISTKSVGRDEREDITHTYKYPEGSSEEREAFTRANHLNKLAEKEETGMAMRIRVGQSMNMGSDFDVFAHITNNTAEEYVCRLLLCARTVSYNGILGPECGTKYLLNLNLEPFSEKSVPLCILYEKYRDCLTESNLIKVRALLVEPVINSYLLAERDLYLENPEIKIRILGEPKQKRKLVAEVSLQNPLPVALEGCTFTVEGAGLTEEQKTVEIPDPVEAGEEVKVRMDLLPLHMGLHKLVVNFESDKLKAVKGFRNVIIGPA
# B2: recombinant human transglutaminase 6 with C-terminal hexahistidine-tag (enzyme, UniProt O95932 1-706, looked up, part only)
# chain: MAGIRVTKVDWQRSRNGAAHHTQEYPCPELVVRRGQSFSLTLELSRALDCEEILIFTMETGPRASEALHTKAVFQTSELERGEGWTAAREAQMEKTLTVSLASPPSAVIGRYLLSIRLSSHRKHSNRRLGEFVLLFNPWCAEDDVFLASEEERQEYVLSDSGIIFRGVEKHIRAQGWNYGQFEEDILNICLSILDRSPGHQNNPATDVSCRHNPIYVTRVISAMVNSNNDRGVVQGQWQGKYGGGTSPLHWRGSVAILQKWLKGRYKPVKYGQCWVFAGVLCTVLRCLGIATRVVSNFNSAHDTDQNLSVDKYVDSFGRTLEDLTEDSMWNFHVWNESWFARQDLGPSYNGWQVLDATPQEESEGVFRCGPASVTAIREGDVHLAHDGPFVFAEVNADYITWLWHEDESRERVYSNTKKIGRCISTKAVGSDSRVDITDLYKYPEGSRKERQVYSKAVNRLFGVEASGRRIWIRRAGGRCLWRDDLLEPATKPSIAGKFKVLEPPMLGHDLRLALCLANLTSRAQRVRVNLSGATILYTRKPVAEILHESHAVRLGPQEEKRIPITISYSKYKEDLTEDKKILLAAMCLVTKGEKLLVEKDITLEDFITIKVLGPAMVGVAVTVEVTVVNPLIERVKDCALMVEGSGLLQEQLSIDVPTLEPQERASVQFDITPSKSGPRQLQVDLVSPHFPDIKGFVIVHVATAK
# modifications: full-length C-terminal His6 tag
# What was measured:
# [1] = molecular target: serum IgA of the coeliac disease patients that displayed reactivity towards both TG2 and TG6 (Example 5); assay: anti-TG2 IgA ELISA after preincubation of sera with 22.4 µg/ml soluble TG2
# [2] = molecular target: serum IgA of the gluten ataxia with enteropathy patients that displayed reactivity towards both TG2 and TG6 (Example 5); assay: as above
# [3] = molecular target: serum IgA of the coeliac disease patients that displayed reactivity towards both TG2 and TG6 (Example 5); assay: anti-TG6 IgA ELISA after preincubation of sera with 22.4 µg/ml soluble TG2
# [4] = molecular target: serum IgA of the gluten ataxia with enteropathy patients that displayed reactivity towards both TG2 and TG6 (Example 5); assay: as above
# [5] = molecular target: serum IgA of gluten ataxia with enteropathy patient GAE 16; assay: inhibition ELISA: serum preincubated with soluble TG2, then TG2-coated plate, IgA detection
# [6] = molecular target: serum IgA of coeliac disease patient CD1; assay: inhibition ELISA: serum preincubated with 50 µg/ml soluble TG2, then TG2-coated plate, IgA detection
# [7] = molecular target: serum IgG of coeliac disease patient CD1; assay: inhibition ELISA: serum preincubated with 50 µg/ml soluble TG2, then TG2-coated plate, IgG detection
# [8] = molecular target: serum IgA of the coeliac disease patients that displayed reactivity towards both TG2 and TG6 (Example 5); assay: anti-TG2 IgA ELISA after preincubation of sera with 22.4 µg/ml soluble TG6
# [9] = molecular target: serum IgA of the gluten ataxia with enteropathy patients that displayed reactivity towards both TG2 and TG6 (Example 5); assay: as above
# [10] = molecular target: serum IgA of the coeliac disease patients that displayed reactivity towards both TG2 and TG6 (Example 5); assay: anti-TG6 IgA ELISA after preincubation of sera with 22.4 µg/ml soluble TG6
# [11] = molecular target: serum IgA of the gluten ataxia with enteropathy patients that displayed reactivity towards both TG2 and TG6 (Example 5); assay: as above
# [12] = molecular target: serum IgA of gluten ataxia with enteropathy patient GAE 16; assay: inhibition ELISA: serum preincubated with soluble TG6, then TG2-coated plate, IgA detection
Binder,mean inhibition (%) [1] [%],mean inhibition (%) [2] [%],mean inhibition (%) [3] [%],mean inhibition (%) [4] [%],percent blocked [5] [%],percent blocked [6] [%],percent blocked [7] [%],mean inhibition (%) [8] [%],mean inhibition (%) [9] [%],mean inhibition (%) [10] [%],mean inhibition (%) [11] [%],percent blocked [12] [%]
B1,37,55,18,14,6,52,93,–,–,–,–,–
B2,–,–,–,–,–,–,–,1,15,71,61,37
